Laboratory results from publication PMC10865538 (BMC Infectious Diseases, 2024).

Target: T1, recombinant wild-type RBD-Fc (Sino Biological, 40,592-V02H) (SARS-CoV-2, UniProt P0DTC2)
T1 construct: also called Fc-tagged SARS-CoV-2 RBD; source: bought: Sino Biological
Assay: BLI
Settings: both partners purified

B1: sdAb39 (VHH)
VHH: EVQLVESGGGLVQPGGSLRLSCAASGNTSTRHPMSWVRQAPGKGLELVASIGRGEITYYADSVKGRFTISRDNSKNTLYLQMNSLRAEDTAVYYCAAFVDFLSRHNSRRPYPHGYWGQGTLVTVSS
- Kd: 56 nM
